Measurements reported in publication PMC6138639, “The ZZ-type zinc finger of ZZZ3 modulates the ATAC complex-mediated histone acetylation and gene activation” (Nature Communications, 2018).

What was measured:
[1] = target: T1, H3K4ac peptide of the tryptophan fluorescence and NMR titration experiments; assay: tryptophan fluorescence; settings: chain shown with the change; H3K4ac (1–12) peptide; triplicates
T1 chain: ARTKQTAR

[2] = target: T2, unmodified H3 peptide of the tryptophan fluorescence and NMR titration experiments; assay: tryptophan fluorescence; settings: chain shown with the change; H3 (1–12) peptide; triplicates
T2 chain: ARTKQTARKSTG

B1: ZZZ3 ZZ domain (aa 800–903), GST cleaved, Q8IYH5 F821A (protein)
chain: KLKKQKLQQMQAESGFVQHVGAKCDNCGIEPIQGVRWHCQDCPPEMSLDFCDSCSDCLHETDIHKEDHQLEPIYRSETFLDRDYCVSQGTSYNYLDPNYFPANR
In the case of B1, the Kd [1] is reported as 294 µM and the Kd [2] is reported as 271 µM.
